This note sets out measurements from PMC8260207.

This assay concerns the target Purified human ribosomes from HEK293 cells (human).

In turn, “purified, recombinant human cGAS (from UniProt Q8N884 1-522) (natural protein)” displayed a cGAMP synthesis by cGAS (thin-layer chromatography) with saturating DNA, fold stimulation by pre-incubation with purified ribosomes, cGAS at 150–300 nM of 8 fold.
